Reference: article PMC8203622, “Tight docking of membranes before fusion represents a metastable state with unique properties” (Nature Communications, 2021)

Molecular target: T1, syntaxin-1A (183–288) (Rattus norvegicus, UniProt P32851 183-288)
T1 construct: syntaxin-1A, Rattus norvegicus, residues 183-288
Assay: assembly of a complex by mixing, isolated by ion exchange chromatography (MonoQ); purified proteins mixed overnight at 4 °C in a buffer containing CHAPS, then MonoQ
Conditions: both partners purified

T1 sequence (P32851 183-288): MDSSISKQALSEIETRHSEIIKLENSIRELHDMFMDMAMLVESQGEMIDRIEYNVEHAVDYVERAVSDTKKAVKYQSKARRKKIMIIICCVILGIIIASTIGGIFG

B1: synaptobrevin-2 fragment (49–96) (domain or fragment, Rattus norvegicus, UniProt P63045 49-96, looked up)
chain: NVDKVLERDQKLSELDDRADALQAGASQFETSAAKLKRKYWWKNLKMM
notes: synaptobrevin-2, Rattus norvegicus, residues 49-96; also called synaptobrevin fragment 49–96
B1: binds.
